For one data set, the target named is full-length XLF (XLF^FL) (human, UniProt Q9H9Q4 1-299). Briefly: SEC.
The data set “crystal structure” concerns the molecule itself. The experiment in a line: crystal structure.

B1: XRCC4(1–140) (domain or fragment)
chain: MERKISRIHLVSEPSITHFLQVSWEKTLESGFVITLTDGHSAWTGTVSESEISQEADDMAMEKGKYVGELRKALLSGAGPADVYTFNFSKESCYFFFEKNLKDVSFRLGSFNLEKVENPAEVIRELICYCLDTIAENQAK
Take B1: the binding result with full-length XLF (XLF^FL) is reported as “binds”.

B2: XLF(1–224) (domain or fragment)
chain: MEELEQGLLMQPWAWLQLAENSLLAKVFITKQGYALLVSDLQQVWHEQVDTSVVSQRAKELNKRLTAPPAAFLCHLDNLLRPLLKDAAHPSEATFSCDCVADALILRVRSELSGLPFYWNFHCMLASPSLVSQHLIRPLMGMSLALQCQVRELATLLHMKDLEIQDYQESGATLIRDRLKTEPFEENSFLEQFMIEKLPEACSIGDGKPFVMNLQDLYMAVTTQ
For the molecule B2, the binding result in “crystal structure” was “binds”.

These data come from publication PMC3173232 (The Journal of Biological Chemistry, 2011).
